Measured values reported in PMC3035117 (ChemMedChem, 2010).
Like-named read-outs stand apart in the source and are kept apart here. Square brackets hold non-standard residues; d marks the D form. Ends that are not written are not given here. Ftp = ferrocenyl-triazole-Pro (made from azidoproline); Cit = NC(=O)NCCC[C@H](N)C(=O)O

Assays:
HIV-1 YU-2 gp120 [1] = biological target: T1, HIV-1 YU-2 gp120 (HIV-1 (YU-2), UniProt P35961 32-498); assay: ITC
HIV-1 YU-2 gp120 [2] = biological target: T1, HIV-1 YU-2 gp120; assay: ELISA
HIV-1 YU-2 gp120 [3] = biological target: T1, HIV-1 YU-2 gp120; assay: ELISA; remark: listed apart in the source

Row | Binder | dH (HIV-1 YU-2 gp120 [1]) [kcal/mol] | IC50 (HIV-1 YU-2 gp120 [2]) [nM] | IC50 (HIV-1 YU-2 gp120 [3]) [nM]
1 | NI[Ftp]WS-NH2 [UM41] | -6.1 | – | –
2 | NNI[Ftp]W-NH2 [UM17] | -13.2 | 4000 ± 170 | 600 ± 50
3 | INNI[Ftp]W-NH2 [UM15] | -16.6 | – | –
4 | [Cit]NNI[Ftp]WS [UM24] | -16.7 | – | –
